These results are taken from patent US6361968, “Extension of a protein-protein interaction surface to inactive the function of a cellular protein” (The United States of America as represented by the …).

In one data set the target is C/EBPalpha (UniProt P05554 P05554:1-358). Briefly: cell_activity; CAT transactivation in HepG2; completely inhibited by 3heptad-F. The note with it: tags: N-terminal FLAG; chain copies: 2 (inferred). The source says:
Human hepatoma cells (HepG2) were transiently transfected with three plasmids, a chloramphenicol acetyl transferase (CAT) expression plasmid driven by a single C/EBP cis element, the C/EBP transactivator, and different DNs. The histogram presents the extent of transactivation observed in the presence of different combinations of transactivator and dominant-negatives. In the absence of any DN, expressed C/EBP transactivated a single C/EBP site approximately 10 fold. […] This protein was able to transactivate a C/EBP containing promoter and was not inhibited by 3heptad-F.
In these experiments, 10 μg of reporter plasmid, 0.3 μg of transactivator, and 5 μg of DN were added to each transient transfection. […] Sheared salmon sperm DNA was added to bring the DNA concentrations to 20 μg. Calcium phosphate transfections were performed following the manufacturer's instructions (Gibco).

The target of data set [1] is T1, VBP-C/EBP chimera (VBP basic region, C/EBP leucine zipper) (Gallus gallus / Rattus norvegicus?).
T1 chain: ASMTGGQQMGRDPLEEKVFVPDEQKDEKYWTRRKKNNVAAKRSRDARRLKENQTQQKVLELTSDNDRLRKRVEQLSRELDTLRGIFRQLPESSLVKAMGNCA
Briefly: competition; calculated from displacement by 0-3heptad-F dominant negatives, Trp fluorescence, 25 C, 150 mM KCl, 12.5 mM phosphate pH 7.4. Conditions: chain copies: 2 (stated). The method, then:
FIG. 14A: 3heptad-F inhibits C/EBP DNA binding. […] Protein was diluted four-fold in the successive lanes. […] FIG. 14B: Displacement of VBP-C/EBP from DNA by five dominant negatives (DNs) assayed by fluorescence. Fluorescence of a single tryptophan located in the basic region of VBP-C/EBP increased upon DNA binding (minutes 5–10). The addition of 1.1 molar equivalents of the F zipper or of the four different acidic extension caused a decrease in fluorescence. After 20 minutes, 10 more molar equivalents were added, causing an additional displacement of VBP-C/EBP from the DNA. 4heptad-F, shown in bold, causes the most dramatic displacement of VBP:C/EBP. […] This is not observed for the other four mixtures which return to the VBP-C/EBP-only baseline.

B1: C/EBP consensus site in CAT reporter promoter (dsDNA)
DNA 1: ATTGCGCAAT
DNA 2: ATTGCGCAAT
Regarding B1, the activity with C/EBPalpha was about 10 fold.

B2: 28 bp C/EBP site probe (dsDNA)
DNA 1: GTCAGTCAGATTGCGCAATATCGGTCAG
DNA 2: CTGACCGATATTGCGCAATCTGACTGAC
As to B2, the Kd (as a rule, the concentration at which binding is half-saturated) in data set [1] was 100 pM.
